Target: α-synuclein (human, UniProt P37840 1-140)
Test: immunofluorescence microscopy, co-localisation in SK-MEL13 cells
Protocol: For immunofluorescence imaging, cells were first seeded onto 16 mm diameter circular sterile coverslips in 12-well culture plates and left to adhere overnight. All coverslips were sterilised with 100% (v/v) ethanol prior to use and allowed to dry. Cells were washed twice in PBS before being fixed in 4% (w/v) paraformaldehyde (diluted in PBS) at room temperature for 10 minutes. PFA was removed and the coverslips were washed twice in PBS. Coverslips were then permeabilised with 0.2% (v/v) NP40 in PBS for 3 min. Cells were then blocked by washing twice and a 15-minute incubation in 1% (w/v) BSA/PBS. Coverslips were then incubated for 1.5 hr at room temperature with a 1:100 dilution of anti-α-synuclein antibody (610786, BD Biosciences) in a humidified chamber. They were then washed 3 times (for 10 minutes each) in 0.2% (w/v) BSA/PBS before being incubated with goat anti-mouse-IgG alexa-fluor 594 conjugated secondary antibody (A-11005, Thermo Fisher Scientific) at a dilution of 1:500 for 1 hour at 37° C., protected from light. Coverslips were then washed three times in 0.2% (w/v) BSA/PBS for 10 minutes each with the first wash containing a 1:15,000 dilution of DAPI. […]
The interaction of NbSyn87 and alpha-synuclein was determined in extracts and cells, with alpha-synuclein knockout cells included as controls for a clean alpha-synuclein IP. […]

- binding result: binds
B1: GFP-NbSYN87 (VHH)
VHH: QVQLQESGGGSVQTGGSLRLSCVASGYSGYMAWFRQAPGKEREGIAAIYRGDKITYYAHSVQGRFTISQANAKNTVYLLMNSLKPEDTAIYYCAARRVVADSPLLSKTYAYWGQGTQVTVSS
notes: Transiently transfected into SK-MEL13 cells; also called GFP-tagged NbSyn87; not shown: GFP tag
